According to patent US7012128B2, “Interaction between cyclin D1 and steroid receptor co-activators and uses thereof in assays” (TopoTarget UK Limited, priority 1998, dated 2006):

B1: cyclin D3: D-type cyclin lacking the leucine-rich motif (protein, UniProt P30281 1-292, looked up)
G1/S-specific cyclin-D3: MELLCCEGTRHAPRAGPDPRLLGDQRVLQSLLRLEERYVPRASYFQCVQREIKPHMRKMLAYWMLEVCEEQRCEEEVFPLAMNYLDRYLSCVPTRKAQLQLLGAVCMLLASKLRETTPLTIEKLCIYTDHAVSPRQLRDWEVLVLGKLKWDLAAVIAHDFLAFILHRLSLPRDRQALVKKHAQTFLALCATDYTFAMYPPSMIATGSIGAAVQGLGACSMSGDELTELLAGITGTEVDCLRACQEQIEAALRESLREASQTSSSPAPKAPRGSSSQGPSQTSTPTDVTAIHL
B2: D1: amino acids 1-202: carboxyl-terminal deletion mutant of cyclin D1 (protein, UniProt P24385 1-202, looked up, fragment)
chain: MEHQLLCCEVETIRRAYPDANLLNDRVLRAMLKAEETCAPSVSYFKCVQKEVLPSMRKIVATWMLEVCEEQKCEEEVFPLAMNYLDRFLSLEPVKKSRLQLLGATCMFVASKMKETIPLTAEKLCIYTDNSIRPEELLQMELLLVNKLKWNLAAMTPHDFIEHFLSKMPEAEENKQIIRKHAQTFVALCATDVKFISNPPSM
B3: cyclin D2: D-type cyclin lacking the leucine-rich motif (protein, UniProt P30279 1-289, looked up)
G1/S-specific cyclin-D2: MELLCHEVDPVRRAVRDRNLLRDDRVLQNLLTIEERYLPQCSYFKCVQKDIQPYMRRMVATWMLEVCEEQKCEEEVFPLAMNYLDRFLAGVPTPKSHLQLLGAVCMFLASKLKETSPLTAEKLCIYTDNSIKPQELLEWELVVLGKLKWNLAAVTPHDFIEHILRKLPQQREKLSLIRKHAQTFIALCATDFKFAMYPPSMIATGSVGAAICGLQQDEEVSSLTCDALTELLAKITNTDVDCLKACQEQIEAVLLNSLQQYRQDQRDGSKSEDELDQASTPTDVRDIDL

The molecules below were run against T1, GST-SRC1 (361-1441) and His-tagged cyclin D1 (Homo sapiens, UniProt P24385) (assay: GST pull down peptide competition assay). Settings: 0.3 μg and 3 μg peptide; Western blot with anti-cyclin D1 antibody.
T1 construct: 6X histidine; made in house; host or cells: E. coli
T1 sequence (P24385 whole entry): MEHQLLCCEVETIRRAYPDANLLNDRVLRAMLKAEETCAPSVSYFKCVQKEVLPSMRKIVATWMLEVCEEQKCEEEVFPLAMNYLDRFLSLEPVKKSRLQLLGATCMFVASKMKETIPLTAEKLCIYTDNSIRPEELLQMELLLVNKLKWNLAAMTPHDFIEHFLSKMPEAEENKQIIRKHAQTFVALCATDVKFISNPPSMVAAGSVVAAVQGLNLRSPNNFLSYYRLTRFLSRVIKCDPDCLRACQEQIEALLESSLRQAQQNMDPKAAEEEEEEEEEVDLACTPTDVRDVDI
Format: binding
Method: To ask whether the LXXLL (SEQ ID NO:6) motifs of SRC-1 are involved in cyclin D1 binding, a peptide competition experiment was performed. Peptides (0.3 μg and 3 μg) derived from the four LXXLL motifs of SRC1 were used in a GST pull down assay using GST-SRC1 (361-1441) and His-tagged cyclin D1 as described above. […] The reduction in binding was greater with 3 μg than with 0.3 μg of each of the LXXLL (SEQ ID NO:6) peptides with no reduction shown with the LXXAA (SEQ ID NO:21)mutant peptide. […] In another experiment, the ability of peptides to compete with cyclin D1 for binding to GST-SRC1 was investigated. Increasing amounts (100, 200 and 500 nM) of AASKHKQLSELLRSG (SEQ ID NO:1) (LXXLL (SEQ ID NO:6)) and AASKHKQLSEAARSG (SEQ ID NO:23) (LXXAA) (SEQ ID NO:21) peptides were used in a GST pull down assay using GST-SRC1 (361-1441) and His-tagged cycliin D1.
GST protein, GST-SRC1 fusion protein and His-tagged cyclin D1 protein were purified as described previously (Zwijsen et al., 1997). Binding between 500 ng GST-SRC1 and 100 ng His-D1 was performed in binding buffer (50 mM NaCl, 50 mM HEPES-KOH pH 7.6, […] 0.1% (w/v) NP40, 0.1 mM PMSF and 0.5% charcoal-stripped serum) bound to glutathione-sepharose for 1 hour at 4° C. The beads were washed three times and bound proteins were eluted by boiling for 10 minutes in sample buffer and separated on 10% SDS-PAGE. The binding of His-cyclin D1 to GST-SRC1 was detected by Western blot analysis using monoclonal antibodies directed against cyclin D1 (DCS-6, Neomarkers). For testing a ternary complex, a baculovirus-produced ER (750 ng, Pan Vera) was added to GST-SRC1 (500 ng) and His-D1 (100 ng) in the presence or absence of 1 μM 17β-estradiol using similar conditions as described above. In Western blot analysis monoclonal antibodies directed against cyclin D1 (DCS-6, Neomarkers) and ER (LH2, Novocastra) were used.
For the peptide inhibition assay using the peptides shown in FIG. 4(B), 150 ng GST/GST-SRC1 and 50 ng His-tagged cyclin D1 were used. […]
With “P3: peptide which corresponds to the third of the three centrally located LXXLL motifs of SRC-1 (KDHQLLRYLLDKDE; listed as Homo sapiens)” the “interference with binding of cyclin D1 to SRC-1” value was “best competitor”. “LXXAA mutant peptide: LXXAA mutant control peptide of the SRC-1 peptide competition experiment, FIG. 4B (PQAQQKSLQQAAT; listed as Homo sapiens) [reference compound]” was tested, and the “interference with binding of cyclin D1 to SRC-1” value was “no reduction”.

Same assay, conditions: 100, 200 and 500 nM peptide
“AASKHKQLSELLRSG [LXXLL peptide derived from p300 amino acid 74-88]” was tested, and the “competition with cyclin D1 for binding to GST-SRC1” value was “Binding was reduced with increasing concentration”.

The molecules below were run on wild type ER (assay: ERE-TATA-luciferase transactivation of wild type ER in COS-7 cells). Settings: COS-7, wild type ER, presence of ligand.
Format: cell-based
Method: FIG. 1. Mapping of the region of cyclin D1 required for ER-mediated transactivation. • (A) The effect of cyclin D1 deletion mutants on ER activation in the presence of ligand. The cyclin D1 derivatives used in this study are shown in the left panel; right side of Figure represents the relative capacity of the mutants to potentiate ERE-dependent transcription. ER-negative COS-7 cells were transfected with expression vectors for wild type ER (200 ng), cyclin D1 or cyclin D1 mutants (2.5 μg), an internal control §-galactosidase plasmid (0.5 μg) and an ERE-TATA-luciferase reporter (3 μg). The effect on ER transactivation of wild type cyclin D1 was set to 100%. These studies were performed in three separate experiments and expressed as mean values with standard deviation less then […]. The alignment of leucine-rich motif of ER with D-type cyclins are shown on the bottom; the leucine-rich motif in cyclin D1 is indicated as a dark box. The identifiers for the sequences shown are as follows: Cyclin D1 (SEQ ID NO:11), Estrogen receptor (SEQ ID NO:12), the Cyclin D2 (SEQ ID NO:13), and the Cyclin D3 (SEQ ID NO:14). • (B) ER activation by D-type cyclins, cyclin D1 L254/255A point mutant (D1-LALA) and SRC-1 in the presence of ligand. COS-7 cells were transfected with D-type cyclin expression vectors, cyclin D1 Leucine-to-Alanine point mutant (D1-LALA) or SRC-1 expression vector together with wild type ER expression vector, an ERE-TATA-luciferase reporter plasmid and the internal control β-galactosidase construct. Data are expressed as relative luciferase activity compared with basal ERE-luciferase activity of wild type ER and are normalized for transfection efficiencies.
FIG. 3. Role of coactivators in cyclin D1—induced transactivation. • (A) Effect of a dominant negative form of SRC-1 (SRC1-DN) on ER transactivation. SRC1-DN encoding amino acids 1245-1441 of SRC-1 (1, 2.5 and 5 μg) was introduced by transient transfection together with wild type ER (200 ng) and was tested for its ability to modulate ERE-dependent transcription. • (B) Effect of SRCI-DN on SRC-1 and TIF 2 mediated ER transactivation. SRC-1 (3 μg) or TIF-2 (3 μg) were transfected with SRC1-DN (3 μg) and tested for ER transactivation. • (C) Effect of SRC1-DN on cyclin D1-induced transactivation of ER 1-535 mutant. Cyclin D1 was cotransfected with SRC1-DN (1, 2.5, 5 μg) and tested for its effect on an ER harboring a deletion of coactivator binding site in helix 12 (ER 1-535). • (D) Effect of SRC1-DN on cyclin D1-induced transactivation of ER L543/544A mutant. Cyclin D1 and SRC1-DN (1, 2.5, 5 gg) were transfected and tested for the activity of ER helix 12 point mutant (ER L543/544A). The transient transfections (A-C) were performed in COS-7 cells, which were maintained in DMEM with 10 nM ligand. The relative activity was calculated by normalizing to the internal control and was divided by luciferase activity of ER (mutant) in the presence of ligand. The transfection for each set of conditions were done at least in four independent experiments and expressed as average ±SD.
To study how cyclin D1 activates ER, cyclin D1 deletion mutants were tested for their effect on ER-transactivation. COS-7 cells were transfected with cyclin D1 mutants, together with ER and a luciferase reporter gene construct driven by a minimal TATA promoter linked to an estrogen response element (ERE). […] This part of the protein is not involved in CDK interaction and is poorly conserved among the different cyclins. […] To test the relevance of this leucine-rich domain of cyclin D1 in ER activation, a cyclin D1 mutant was constructed in which leucines 254 and 255 were mutated to alanines (D1 L254/255A). This mutation in cyclin D1 is similar to the mutation in ER (ER L543/544A) that interferes with coactivator binding to AF-2 (Danielian et al., 1992). […]
With “D1: amino acids 1-247: carboxyl-terminal deletion mutant of cyclin D1” the ER transactivation capacity was “lack ER transactivation capacity”. In the case of “D1: amino acids 1-267: cyclin D1 mutant lacking the extreme carboxyl-terminus”, the ER transactivation capacity is reported as “partially retained ER activation”. In the case of “D1: amino acids 91-295: amino-terminal deletion mutant of cyclin D1”, the ER transactivation capacity is reported as “still able to activate ER”. With B1 the ER transactivation capacity was “behaved similar-to the D1 L254/255A mutant”. In the case of B2, the ER transactivation capacity is reported as “lack ER transactivation capacity”. B3 was tested, and the ER transactivation capacity was “behaved similar-to the D1 L254/255A mutant”.
